The record followed here is paper PMC5925078 (2018).

Assay [1] addresses T1, TNFR2 variant in which the intracellular binding site for TRAF2 has been substituted by YFP (UniProt P20333 23-461).
T1 chain: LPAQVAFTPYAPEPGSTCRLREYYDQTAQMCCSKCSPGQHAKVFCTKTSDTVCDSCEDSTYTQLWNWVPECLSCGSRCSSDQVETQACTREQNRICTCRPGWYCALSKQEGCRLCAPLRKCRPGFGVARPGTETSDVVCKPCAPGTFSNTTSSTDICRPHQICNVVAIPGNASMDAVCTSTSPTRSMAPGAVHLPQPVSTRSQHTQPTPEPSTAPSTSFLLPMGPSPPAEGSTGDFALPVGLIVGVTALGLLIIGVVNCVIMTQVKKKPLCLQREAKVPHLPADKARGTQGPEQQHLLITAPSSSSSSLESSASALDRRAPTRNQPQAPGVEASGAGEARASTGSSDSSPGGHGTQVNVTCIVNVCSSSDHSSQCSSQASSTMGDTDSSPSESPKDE
As to the kind of experiment: cells co-expressing PGRN.

In assay [2] the target is T1, TNFR2 variant in which the …. As to the kind of experiment: cells, second transfection empty vector.

B1: GpL-Flag-TNC-TNF (ligand)
chain: ACGCAAAPDIKDLLSRLEELEGLVSSLREQSDKPVAHVVANPQAEGQLQWLNRRANALLANGVELRDNQLVVPSEGLYLIYSQVLFKGQGCPSTHVLLTHTISRIAVSYQTKVNLLSAIKSPCQRETPEGAEAKPWYEPIYLGGVFQLEKGDRLSAEINRPDYLDFAESGQVYFGIIAL
With B1, the results for the dissociation constant (Kd) in assay [1] and in assay [2] were 0.049 nM and 0.036 nM, respectively.

By Kd is commonly meant the constant that tells how readily two partners part at equilibrium. Low readings indicate higher affinity, high ones lower affinity.
